Laboratory results taken from paper PMC8699279, “Exercise-Induced Irisin Decreases Inflammation and Improves NAFLD by Competitive Binding with MD2” (Cells, 2021).

Biological target: T1, recombinant human MD2 (human, UniProt Q9Y6Y9 19-160)
T1 construct: myeloid differentiation factor 2 (MD2), human, recombinant; No catalogue number is printed; PDB 2E56 was used only for docking; also called rhMD2; myeloid differentiation factor 2; source: bought: R&D Systems
T1 sequence: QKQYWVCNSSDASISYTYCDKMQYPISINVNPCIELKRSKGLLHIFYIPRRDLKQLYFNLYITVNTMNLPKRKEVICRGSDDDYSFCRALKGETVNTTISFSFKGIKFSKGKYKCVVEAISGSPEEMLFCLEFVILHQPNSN
Assay: SPR; Biacore T200, CM5 chip, target protein amine-coupled; irisin flowed at seven concentrations, 30 μL/min, 200 s association, 200 s dissociation, 25 °C, PBS with 0.5% P20; global fit with a 1:1 Langmuir model
Settings: both partners purified

B1: recombinant irisin (ligand)
chain: DSPSAPVNVTVRHLKANSAVVSWDVLEDEVVIGFAISQQKKDVRMLRFIQEVNTTTRSCALWDLEEDTEYIVHVQAISIQGQSPASEPVLFKTPREAEKMASKNKDEVTMKE
modifications: Commercial recombinant protein (Phoenix Pharmaceuticals); catalogue number, host and glycosylation not stated. Limits are the conventional 112-aa mature irisin: residues 32-143 of the 212-aa FNDC5 …
Kd: 1.65 nM
